Assay results from the supplement of paper PMC7877785.
± gives the uncertainty stated by the source.

Test: self-splicing fitness, log relative to wild type (ln ratio); higher = more splicing; Tetrahymena group I intron in knt gene, E. coli kanamycin selection, DiMSum; sequences stand for … in CUCUCU…GGAGGGAAAAGUUAUCAGGCAUGCACCUGGUAGCUAGUCUUUAAACCAAUAGAUUGCAUCGGUUUAAAAGGCAAGACCGUCAAAUUGCGGGAAAGGGGUCAACAGCCGUUCAGUACCAAGUCUCAGGGGAAACUUUGAGAUGGCCUUGCAAAGGGUAUGGUAAUAAGCUGACGGACAUGGUCCUAACCACGCAGCCAAGUCCUAAGUCAACAGAUCUUCUGUUGAUAUGGAUGCAGUUCACAGACUAAAUGUCGGUCGGGGAAGAUGUAUUCUUCUCAUAAGAUAUAGUCGGACCUCUCCUUAAUGGGAGCUAGCGGAUGAAGUGAUGCAACACUGGAGCCGCUGGGAACUAAUUUGUAUGCGAAAGUAUAUUGAUUAGUUUUGGAGUACUCGUGGUCG
Procedure, shortened: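 Library with all eight P1ex-region intron nucleotides randomised, intron inside the knt kanamycin-resistance gene on pET-22b(+), in E. coli BL21(DE3). Cells grew overnight at 37°C or 30°C on LB agar with or without 25 μg/mL kanamycin (plus 100 μg/mL carbenicillin, 50 μM IPTG, 0.2% rhamnose), in six replicate transformations. Pooled colonies were amplicon-sequenced on Illumina HiSeq 2500. DiMSum fitness is the error-weighted combination of wild-type-normalised replicate fold changes, kanamycin versus none.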

## ACGGAGCAAUAUUACGGUUA
30 °C
  self-splicing fitness (ln): -2.6 ± 0.23
37 °C
  self-splicing fitness (ln): -2.2 ± 0.15

## ACGGAGCAAUAUUACGUAAG
30 °C
  self-splicing fitness (ln): -3.18 ± 0.2
37 °C
  self-splicing fitness (ln): -1.82 ± 0.24

## ACGGAGCAAUAUUACGUCAC
30 °C
  self-splicing fitness (ln): -3.48 ± 0.31
37 °C
  self-splicing fitness (ln): -2.42 ± 0.45

## ACGGAGCAAUAUUACGUCGC
30 °C
  self-splicing fitness (ln): -2.93 ± 0.24
37 °C
  self-splicing fitness (ln): -1.42 ± 0.18

## ACGGAGCAAUAUUACGUCGG
30 °C
  self-splicing fitness (ln): -3.04 ± 0.31
37 °C
  self-splicing fitness (ln): -0.422 ± 0.23

## ACGGAGCAAUAUUACGUUCC
30 °C
  self-splicing fitness (ln): -3.92 ± 0.47
37 °C
  self-splicing fitness (ln): -2.01 ± 0.37

## ACGUAGCAAUAUUACGAACA
30 °C
  self-splicing fitness (ln): -1.56 ± 0.24
37 °C
  self-splicing fitness (ln): -0.252 ± 0.2

## ACGUAGCAAUAUUACGACUC
30 °C
  self-splicing fitness (ln): -0.301 ± 0.26
37 °C
  self-splicing fitness (ln): -0.584 ± 0.27

## ACGUAGCAAUAUUACGACUU
30 °C
  self-splicing fitness (ln): -0.145 ± 0.099
37 °C
  self-splicing fitness (ln): 0.593 ± 0.13

## ACGUAGCAAUAUUACGAUAA
30 °C
  self-splicing fitness (ln): -1.52 ± 0.13
37 °C
  self-splicing fitness (ln): -1.51 ± 0.18

## ACGUAGCAAUAUUACGAUAG
30 °C
  self-splicing fitness (ln): -3.45 ± 0.24
37 °C
  self-splicing fitness (ln): -2.53 ± 0.23

## ACGUAGCAAUAUUACGAUCC
30 °C
  self-splicing fitness (ln): -1.03 ± 0.17
37 °C
  self-splicing fitness (ln): -0.00168 ± 0.18

## ACGUAGCAAUAUUACGCACC
30 °C
  self-splicing fitness (ln): -1.18 ± 0.11
37 °C
  self-splicing fitness (ln): -0.224 ± 0.16

## ACGUAGCAAUAUUACGCAGU
30 °C
  self-splicing fitness (ln): -2.58 ± 0.2
37 °C
  self-splicing fitness (ln): -2.54 ± 0.24

## ACGUAGCAAUAUUACGGAAA
30 °C
  self-splicing fitness (ln): -2.27 ± 0.4
37 °C
  self-splicing fitness (ln): -1.94 ± 0.33

## ACGUAGCAAUAUUACGGACC
30 °C
  self-splicing fitness (ln): -1.21 ± 0.16
37 °C
  self-splicing fitness (ln): -0.314 ± 0.2

## ACGUAGCAAUAUUACGGCUC
30 °C
  self-splicing fitness (ln): -1.2 ± 0.12
37 °C
  self-splicing fitness (ln): -0.844 ± 0.15

## ACGUAGCAAUAUUACGGUGC
30 °C
  self-splicing fitness (ln): -3.86 ± 0.4
37 °C
  self-splicing fitness (ln): -2.01 ± 0.22

## ACGUAGCAAUAUUACGUAGC
30 °C
  self-splicing fitness (ln): -3.34 ± 0.27
37 °C
  self-splicing fitness (ln): -2.62 ± 0.35

## ACGUAGCAAUAUUACGUCCA
30 °C
  self-splicing fitness (ln): -1.02 ± 0.14
37 °C
  self-splicing fitness (ln): -1.13 ± 0.15

## ACGUAGCAAUAUUACGUCUU
30 °C
  self-splicing fitness (ln): -3.76 ± 0.16
37 °C
  self-splicing fitness (ln): -1.92 ± 0.15

## ACGUAGCAAUAUUACGUGCG
30 °C
  self-splicing fitness (ln): -2.19 ± 0.1
37 °C
  self-splicing fitness (ln): -1.17 ± 0.11

## ACGUAGCAAUAUUACGUGGU
30 °C
  self-splicing fitness (ln): -4.03 ± 0.18
37 °C
  self-splicing fitness (ln): -1.13 ± 0.094

## ACGUAGCAAUAUUACGUUGU
30 °C
  self-splicing fitness (ln): -3.07 ± 0.11
37 °C
  self-splicing fitness (ln): -2.01 ± 0.14

## ACUAAGCAAUAUUACGAAGU
30 °C
  self-splicing fitness (ln): -3.81 ± 0.38
37 °C
  self-splicing fitness (ln): -2.1 ± 0.35

## ACUAAGCAAUAUUACGAAUG
30 °C
  self-splicing fitness (ln): -2.31 ± 0.13
37 °C
  self-splicing fitness (ln): -1.2 ± 0.14

## ACUAAGCAAUAUUACGACCU
30 °C
  self-splicing fitness (ln): -0.123 ± 0.081
37 °C
  self-splicing fitness (ln): 0.342 ± 0.1

## ACUAAGCAAUAUUACGACGU
30 °C
  self-splicing fitness (ln): -0.322 ± 0.066
37 °C
  self-splicing fitness (ln): 0.158 ± 0.082

## ACUAAGCAAUAUUACGAGGA
30 °C
  self-splicing fitness (ln): -2.34 ± 0.23
37 °C
  self-splicing fitness (ln): -2.13 ± 0.2

## ACUAAGCAAUAUUACGAGUU
30 °C
  self-splicing fitness (ln): -3.56 ± 0.15
37 °C
  self-splicing fitness (ln): -3.42 ± 0.25

## ACUAAGCAAUAUUACGAUAG
30 °C
  self-splicing fitness (ln): -1.34 ± 0.076
37 °C
  self-splicing fitness (ln): -0.427 ± 0.096

## ACUAAGCAAUAUUACGCAUA
30 °C
  self-splicing fitness (ln): -1.9 ± 0.14
37 °C
  self-splicing fitness (ln): -2.14 ± 0.14

## ACUAAGCAAUAUUACGCCUG
30 °C
  self-splicing fitness (ln): -1.78 ± 0.14
37 °C
  self-splicing fitness (ln): -0.595 ± 0.15

## ACUAAGCAAUAUUACGCGAA
30 °C
  self-splicing fitness (ln): -1.57 ± 0.13
37 °C
  self-splicing fitness (ln): -1.22 ± 0.17

## ACUAAGCAAUAUUACGCGAC
30 °C
  self-splicing fitness (ln): -2.71 ± 0.19
37 °C
  self-splicing fitness (ln): -2.78 ± 0.21

## ACUAAGCAAUAUUACGCGUG
30 °C
  self-splicing fitness (ln): -1.58 ± 0.098
37 °C
  self-splicing fitness (ln): -0.684 ± 0.095

## ACUAAGCAAUAUUACGCGUU
30 °C
  self-splicing fitness (ln): -3.36 ± 0.13
37 °C
  self-splicing fitness (ln): -1.58 ± 0.11

## ACUAAGCAAUAUUACGGAGG
30 °C
  self-splicing fitness (ln): -2.52 ± 0.11
37 °C
  self-splicing fitness (ln): -1.16 ± 0.13

## ACUAAGCAAUAUUACGGCAC
30 °C
  self-splicing fitness (ln): -0.673 ± 0.096
37 °C
  self-splicing fitness (ln): -1.92 ± 0.095

## ACUAAGCAAUAUUACGGCCU
30 °C
  self-splicing fitness (ln): -0.171 ± 0.073
37 °C
  self-splicing fitness (ln): -0.475 ± 0.087

## ACUAAGCAAUAUUACGGCUG
30 °C
  self-splicing fitness (ln): -0.108 ± 0.076
37 °C
  self-splicing fitness (ln): 0.16 ± 0.097

## ACUAAGCAAUAUUACGGGGA
30 °C
  self-splicing fitness (ln): -1.84 ± 0.12
37 °C
  self-splicing fitness (ln): -1.55 ± 0.13
